Laboratory results from PMC8005443.

How the values were obtained:
[1] = biological target: PI3Kγ-RBD (residues 193–316) (human) (UniProt P48736); assay: ITC
[2] = biological target: PI3Kα-RBD (Human PI3Kα residues 157–300) (human) (UniProt P42336); assay: ITC

Kd [1] [nM]	dH [1] [kcal/mol]	stoichiometry N [1]	Kd [2] [nM]	dH [2] [kcal/mol]	stoichiometry N [2]	Substance
2600	-2.97	0.91	4000	-2.59	1.06	KRAS4B^Q61H (from UniProt P01116-2 1-169) (enzyme)
2400	-4.16	0.81	2300	-3.82	1.07	KRAS4B^G12V (from UniProt P01116-2 1-169) (enzyme)
